We go through 2 molecules from patent US20250313631A1 (HUMMINGBIRD BIOSCIENCE PTE, published 2025).

In one assay the target is human PD-1 (human, UniProt Q15116 25-167). Briefly: ELISA, plate coated with the antigen.
In another assay the target is T1, human B7H3 (human, UniProt Q5ZPR3 29-461, limits assumed).
T1 construct: also called CD276
T1 sequence (looked up): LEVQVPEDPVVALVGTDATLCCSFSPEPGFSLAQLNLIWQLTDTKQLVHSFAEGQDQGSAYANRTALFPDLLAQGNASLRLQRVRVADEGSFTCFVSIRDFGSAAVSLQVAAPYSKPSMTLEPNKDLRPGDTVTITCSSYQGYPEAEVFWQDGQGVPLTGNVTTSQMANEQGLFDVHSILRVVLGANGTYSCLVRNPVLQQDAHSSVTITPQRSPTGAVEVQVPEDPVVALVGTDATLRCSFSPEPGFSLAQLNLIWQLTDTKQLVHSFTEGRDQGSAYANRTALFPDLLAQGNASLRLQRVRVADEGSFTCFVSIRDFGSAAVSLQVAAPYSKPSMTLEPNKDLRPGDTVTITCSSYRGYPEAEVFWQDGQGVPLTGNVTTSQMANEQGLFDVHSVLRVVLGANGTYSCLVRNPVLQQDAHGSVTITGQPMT
Briefly: ELISA, plate coated with the antigen. A general note: In an ELISA, binding on a coated surface is turned into a signal by an enzyme label.

In another assay the target is T2, human B7H4 (human, UniProt Q7Z7D3 25-258, limits assumed).
T2 construct: also called VTCN1
T2 sequence (looked up): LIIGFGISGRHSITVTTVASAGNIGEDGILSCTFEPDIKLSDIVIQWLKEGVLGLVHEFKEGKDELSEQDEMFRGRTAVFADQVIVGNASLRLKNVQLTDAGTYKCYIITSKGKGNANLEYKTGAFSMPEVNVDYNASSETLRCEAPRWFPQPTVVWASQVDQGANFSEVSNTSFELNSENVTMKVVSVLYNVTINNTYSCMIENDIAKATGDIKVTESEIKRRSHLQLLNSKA
Briefly: ELISA, plate coated with the antigen.

In another assay the target is T3, human B7H6 (human, UniProt Q68D85 25-262).
T3 construct: also called NCR3LG1
T3 sequence (looked up): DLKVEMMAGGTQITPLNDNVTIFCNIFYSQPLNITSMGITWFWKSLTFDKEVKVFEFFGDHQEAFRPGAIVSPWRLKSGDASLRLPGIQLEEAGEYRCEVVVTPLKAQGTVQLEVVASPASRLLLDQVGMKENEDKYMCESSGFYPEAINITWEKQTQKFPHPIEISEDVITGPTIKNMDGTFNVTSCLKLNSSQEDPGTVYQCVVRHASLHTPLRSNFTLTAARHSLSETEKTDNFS
Briefly: ELISA, plate coated with the antigen.

Another assay concerns the target T4, human B7H7 (human, UniProt Q9UM44 23-344).
T4 construct: also called HHLA2
T4 sequence (looked up): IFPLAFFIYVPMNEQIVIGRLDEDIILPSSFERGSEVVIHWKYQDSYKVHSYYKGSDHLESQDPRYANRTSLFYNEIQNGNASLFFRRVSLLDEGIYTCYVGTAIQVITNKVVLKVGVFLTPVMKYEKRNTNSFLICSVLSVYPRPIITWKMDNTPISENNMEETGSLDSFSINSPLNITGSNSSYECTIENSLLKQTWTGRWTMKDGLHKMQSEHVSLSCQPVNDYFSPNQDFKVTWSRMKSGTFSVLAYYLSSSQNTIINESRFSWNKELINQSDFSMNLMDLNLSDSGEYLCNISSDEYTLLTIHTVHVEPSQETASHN
Briefly: ELISA, plate coated with the antigen.

A further assay addresses human CTLA4 (human, UniProt P16410 36-162). Briefly: ELISA, plate coated with the antigen.
Assay [1] deals with T5, recombinant rat VISTA (His-tagged) (rat, UniProt A0ABK0L5H3 33-192).
T5 sequence: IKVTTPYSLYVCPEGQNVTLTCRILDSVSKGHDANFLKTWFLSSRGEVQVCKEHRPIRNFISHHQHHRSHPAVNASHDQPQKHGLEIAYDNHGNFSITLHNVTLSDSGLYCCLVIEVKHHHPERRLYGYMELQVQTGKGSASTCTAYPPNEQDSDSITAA
Briefly: ELISA, VISTA-HIS protein coated; ELISA, rat VISTA-HIS.
Method: (§1) 384-well plates were coated with 1 μg/ml of target antigen diluted in PBS for 16 hrs at 4° C. […] After washing, plates were developed with colorimetric detection substrate 3,3′,5,5′-tetramethylbenzidine (Turbo-TMB; Pierce) for 10 min.

In assay [2] the target is T6, recombinant human VISTA (His-tagged) (human, UniProt Q9H7M9 33-194).
T6 construct: bought soluble protein (Sino Biological); also called hVISTA; human VISTA polypeptide
Briefly: antigen-binding ELISA; HMBD-002 in F6, day 30 at 40°C.

In assay [3] the target is T7, human VISTA expressed on cells (human, UniProt Q9H7M9 33-311).
T7 construct: also called HEK293 VISTA O/E; HEK293T or HEK293-6E cells overexpressing human VISTA
Briefly: flow cytometry, endogenous VISTA on CD11b+ myeloid cells of PBMCs. Background: In flow cytometry, cells or beads pass a laser one at a time.
Method: (§2) To identify myeloid cells, PBMCs were further incubated with CD45 FITC and CD11b PE. Cells were washed again and resuspended in 200 μL of FACS flow buffer (PBS with 5 mM EDTA) for flow cytometric analysis using MACSQuant 10 (Miltenyi). After acquisition, all raw data were analyzed using Flowlogic software. Cells were gated using forward and side scatter, and the percentage of positive cells was determined.

Assay [4] deals with T8, mouse VISTA expressed on cells (mouse, UniProt Q9D659 33-308).
T8 construct: whole, on cells; also called murine VISTA on transfected cells; VISTA on mouse CD11b+ myeloid cells
T8 sequence (looked up): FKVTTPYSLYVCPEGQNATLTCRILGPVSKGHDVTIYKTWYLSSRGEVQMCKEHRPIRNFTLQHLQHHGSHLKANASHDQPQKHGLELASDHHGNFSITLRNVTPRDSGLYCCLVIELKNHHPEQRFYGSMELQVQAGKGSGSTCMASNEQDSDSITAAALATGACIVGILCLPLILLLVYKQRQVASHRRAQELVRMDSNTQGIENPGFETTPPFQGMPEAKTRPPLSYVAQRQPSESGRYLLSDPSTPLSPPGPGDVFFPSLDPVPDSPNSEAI
Described as above.
Method: as §2

The target in assay [5] is T9, rat VISTA expressed on cells (rat, UniProt A0ABK0L5H3 33-310).
T9 construct: whole, on cells; also called rat VISTA on HEK293T cells; VISTA on rat CD11b+ myeloid cells
T9 sequence: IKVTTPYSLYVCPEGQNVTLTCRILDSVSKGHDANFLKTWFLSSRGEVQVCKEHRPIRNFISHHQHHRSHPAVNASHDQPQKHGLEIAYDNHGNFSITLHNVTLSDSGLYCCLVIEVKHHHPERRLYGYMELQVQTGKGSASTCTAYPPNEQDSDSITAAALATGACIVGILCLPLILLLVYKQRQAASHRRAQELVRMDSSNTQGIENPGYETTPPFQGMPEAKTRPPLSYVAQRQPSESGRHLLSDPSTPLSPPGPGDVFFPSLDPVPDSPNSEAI
Described as above.
Method: as §2

Assay [6] deals with T6, recombinant human VISTA (His-tagged). Briefly: ELISA, plate coated with human B7H5 (VISTA), antibody titrated.
Method: as §1

Sequence of human CTLA4 (P16410 36-162 limits assumed): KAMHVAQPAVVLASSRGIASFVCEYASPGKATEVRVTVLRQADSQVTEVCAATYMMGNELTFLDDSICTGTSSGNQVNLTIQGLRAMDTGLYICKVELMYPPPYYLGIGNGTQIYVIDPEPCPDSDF
Sequence of human PD-1 (Q15116 25-167 limits assumed): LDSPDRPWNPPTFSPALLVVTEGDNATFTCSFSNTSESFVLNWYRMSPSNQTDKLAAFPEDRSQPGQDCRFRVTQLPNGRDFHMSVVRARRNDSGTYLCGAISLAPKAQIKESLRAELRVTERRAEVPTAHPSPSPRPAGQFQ

B1: anti-VISTA clone V4-C27 IgG1 (antibody, V domains shown)
VH: QVQLQESGPGLVKPSDTLSLTCTVSGYSITSDYTWNWIRQTPGKGLEWIGHITYSGSVSYNPSLRSRVTISRDTSKNQFSLKLSSVTAADTATYSCARALYYPWYFDVWGTGTTVTVSS
VL: EIVLTQSPATLSLSPGERATLSCRASSSVGYIHWYQQKPGQAPRPLIYATYNRATGIPARFSGSGSGTDNTLTISSLEPEDSAVYYCQQWSSYPPITFGGGTKLEVKR
Regarding B1, the binding result with human PD-1, in the assay with human B7H3, in the assay with human B7H4, in the assay with human B7H6, in the assay with human B7H7 and with human CTLA4 was “no binding (tested: log -7.5 M)” in each case.

B2: V4-C26 hIgG4 (antibody)
heavy: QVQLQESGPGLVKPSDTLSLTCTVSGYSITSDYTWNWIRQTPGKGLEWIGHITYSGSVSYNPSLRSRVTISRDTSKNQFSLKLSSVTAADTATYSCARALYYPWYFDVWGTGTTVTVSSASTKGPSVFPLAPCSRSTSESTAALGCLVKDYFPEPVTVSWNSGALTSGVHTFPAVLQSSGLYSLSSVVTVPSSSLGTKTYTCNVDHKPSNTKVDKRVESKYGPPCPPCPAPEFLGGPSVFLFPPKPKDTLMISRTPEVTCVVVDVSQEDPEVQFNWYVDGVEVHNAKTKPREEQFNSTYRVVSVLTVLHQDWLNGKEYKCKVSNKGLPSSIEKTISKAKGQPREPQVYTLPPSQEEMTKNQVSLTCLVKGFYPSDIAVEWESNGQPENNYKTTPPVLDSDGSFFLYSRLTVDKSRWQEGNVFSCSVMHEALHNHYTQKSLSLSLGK
light: EIVLTQSPATLSLSPGERATLSCRASSSVGYIHWYQQKPGQAPRPIIYTTSNRATGIPARFSGSGSGTDNTLTISSLEPEDSAVYYCQQWSSYPPITFGGGTKLEVKRTVAAPSVFIFPPSDEQLKSGTASVVCLLNNFYPREAKVQWKVDNALQSGNSQESVTEQDSKDSTYSLSSTLTLSKADYEKHKVYACEVTHQGLSSPVTKSFNRGEC
notes: human IgG4 (S228P)/kappa format; also called HMBD-002; HMBD-002-V4C26
The term EC50 denotes the concentration at which the effect is half-maximal. For orientation: EC50 (read off the curve) means the midpoint of the concentration-response curve. B2: the EC50 in assay [1] stood at 0.00669 nM; in assay [2], 0.0218 nM; in assay [3], 108 nM; in assay [4], 111 nM; in assay [5], 48.6 nM. Further, in assay [6], the “EC50 (read off the curve)” value is ~0.01 nM.
